B1: 24 nt hp-RNA (structured_RNA)
RNA: CCCUGAGCUGACGCAGCACCUGGG
B2: HEX_hp-RNA_BHQ molecular beacon (structured_RNA)
RNA: CCCUGAGCUGACGCAGCACCUGGG
modifications: 3' BHQ-1

Columns and labels:
UPF2L;UPF3B = UPF2L;UPF3B (human?;human?, UniProt Q9HAU5;Q9BZI7 121-1227;41-262, |); test: EMSA; higher affinity than UPF2L alone, lower than UPF3B; FA: 25 mM HEPES pH 7.45, 150 mM NaCl, 5% glycerol, 10 nM probe, temperature not stated; EMSA: 250 nM probe in 25 mM HEPES pH 7.45, 100 mM NaCl, 5% glycerol (protein dilution buffer 300 nM [sic] NaCl, 2 mM bME or 1 mM TCEP), 1 h on ice, gel at 4 C; details: protein: recombinant;recombinant; tags: C-terminal TEV site and His6;; copies: 1;1; label: 5' HEX; hairpin with bulges
UPF2L;UPF3B, sequence (Q9HAU5 121-1227, one chain of several): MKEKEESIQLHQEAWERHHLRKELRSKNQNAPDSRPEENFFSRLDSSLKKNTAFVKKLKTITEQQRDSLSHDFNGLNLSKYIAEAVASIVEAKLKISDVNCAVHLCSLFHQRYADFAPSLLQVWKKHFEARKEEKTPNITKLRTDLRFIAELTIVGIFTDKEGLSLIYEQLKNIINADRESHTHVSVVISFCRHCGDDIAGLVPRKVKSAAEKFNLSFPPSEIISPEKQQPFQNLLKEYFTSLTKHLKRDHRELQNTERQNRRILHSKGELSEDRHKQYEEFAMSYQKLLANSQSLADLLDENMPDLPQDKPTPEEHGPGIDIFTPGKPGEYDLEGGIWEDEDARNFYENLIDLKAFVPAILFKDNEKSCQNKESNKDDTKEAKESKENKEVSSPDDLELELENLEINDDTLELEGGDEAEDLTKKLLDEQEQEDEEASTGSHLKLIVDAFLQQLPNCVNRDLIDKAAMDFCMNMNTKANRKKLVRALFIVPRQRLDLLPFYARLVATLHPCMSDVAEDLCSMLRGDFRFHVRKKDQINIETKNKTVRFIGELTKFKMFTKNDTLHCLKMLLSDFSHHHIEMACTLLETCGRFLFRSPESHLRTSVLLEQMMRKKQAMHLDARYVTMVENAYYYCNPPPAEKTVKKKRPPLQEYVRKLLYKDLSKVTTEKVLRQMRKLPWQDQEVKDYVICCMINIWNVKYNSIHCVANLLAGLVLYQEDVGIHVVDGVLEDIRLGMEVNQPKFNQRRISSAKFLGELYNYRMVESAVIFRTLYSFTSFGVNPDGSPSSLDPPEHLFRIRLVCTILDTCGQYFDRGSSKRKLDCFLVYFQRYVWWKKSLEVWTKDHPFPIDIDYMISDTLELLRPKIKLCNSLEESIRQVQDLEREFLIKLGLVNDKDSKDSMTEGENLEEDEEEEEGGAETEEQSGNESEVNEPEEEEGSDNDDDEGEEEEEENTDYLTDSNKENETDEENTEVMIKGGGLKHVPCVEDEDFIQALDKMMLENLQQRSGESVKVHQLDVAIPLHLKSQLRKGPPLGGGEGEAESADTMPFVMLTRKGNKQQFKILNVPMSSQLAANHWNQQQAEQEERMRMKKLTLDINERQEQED

UPF3B = target: T1, UPF3B (UniProt Q9BZI7 41-262); test: EMSA; excess UPF3B gives oligomers in well; FA: 25 mM HEPES pH 7.45, 150 mM NaCl, 5% glycerol, 10 nM probe, temperature not stated; EMSA: 250 nM probe in 25 mM HEPES pH 7.45, 100 mM NaCl, 5% glycerol (protein dilution buffer 300 nM [sic] NaCl, 2 mM bME or 1 mM TCEP), 1 h on ice, gel at 4 C; details: protein: recombinant; label: 5' HEX; hairpin with bulges
T1 sequence: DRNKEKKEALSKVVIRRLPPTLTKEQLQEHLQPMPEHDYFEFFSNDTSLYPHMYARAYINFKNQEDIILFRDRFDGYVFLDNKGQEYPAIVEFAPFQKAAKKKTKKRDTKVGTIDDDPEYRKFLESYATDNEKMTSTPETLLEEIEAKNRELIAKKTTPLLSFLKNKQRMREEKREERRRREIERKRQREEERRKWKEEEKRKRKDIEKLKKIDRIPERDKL

UPF2 MIF4G-D3;UPF3B = UPF2 MIF4G-D3;UPF3B (human?;human?, UniProt Q9HAU5;Q9BZI7 761-1054;41-262, |); test: EMSA; FA: 25 mM HEPES pH 7.45, 150 mM NaCl, 5% glycerol, 10 nM probe, temperature not stated; EMSA: 250 nM probe in 25 mM HEPES pH 7.45, 100 mM NaCl, 5% glycerol (protein dilution buffer 300 nM [sic] NaCl, 2 mM bME or 1 mM TCEP), 1 h on ice, gel at 4 C; details: protein: recombinant;recombinant; tags: C-terminal TEV site and His6;; copies: 1;1; label: 5' HEX; hairpin with bulges
UPF2 MIF4G-D3;UPF3B, sequence (Q9HAU5 761-1054, one chain of several): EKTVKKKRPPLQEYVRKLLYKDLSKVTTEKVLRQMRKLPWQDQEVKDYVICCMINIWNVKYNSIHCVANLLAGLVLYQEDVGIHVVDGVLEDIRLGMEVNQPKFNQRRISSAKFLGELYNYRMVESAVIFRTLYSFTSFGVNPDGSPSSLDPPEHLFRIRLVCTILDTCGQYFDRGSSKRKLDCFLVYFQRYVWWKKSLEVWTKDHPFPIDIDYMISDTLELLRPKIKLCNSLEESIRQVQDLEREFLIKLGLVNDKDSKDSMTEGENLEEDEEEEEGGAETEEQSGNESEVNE

UPF1 = target: T2, UPF1 (UniProt Q92900-2 115-914); test: as above; details: protein: recombinant; label: 5' HEX; hairpin with bulges
T2 sequence: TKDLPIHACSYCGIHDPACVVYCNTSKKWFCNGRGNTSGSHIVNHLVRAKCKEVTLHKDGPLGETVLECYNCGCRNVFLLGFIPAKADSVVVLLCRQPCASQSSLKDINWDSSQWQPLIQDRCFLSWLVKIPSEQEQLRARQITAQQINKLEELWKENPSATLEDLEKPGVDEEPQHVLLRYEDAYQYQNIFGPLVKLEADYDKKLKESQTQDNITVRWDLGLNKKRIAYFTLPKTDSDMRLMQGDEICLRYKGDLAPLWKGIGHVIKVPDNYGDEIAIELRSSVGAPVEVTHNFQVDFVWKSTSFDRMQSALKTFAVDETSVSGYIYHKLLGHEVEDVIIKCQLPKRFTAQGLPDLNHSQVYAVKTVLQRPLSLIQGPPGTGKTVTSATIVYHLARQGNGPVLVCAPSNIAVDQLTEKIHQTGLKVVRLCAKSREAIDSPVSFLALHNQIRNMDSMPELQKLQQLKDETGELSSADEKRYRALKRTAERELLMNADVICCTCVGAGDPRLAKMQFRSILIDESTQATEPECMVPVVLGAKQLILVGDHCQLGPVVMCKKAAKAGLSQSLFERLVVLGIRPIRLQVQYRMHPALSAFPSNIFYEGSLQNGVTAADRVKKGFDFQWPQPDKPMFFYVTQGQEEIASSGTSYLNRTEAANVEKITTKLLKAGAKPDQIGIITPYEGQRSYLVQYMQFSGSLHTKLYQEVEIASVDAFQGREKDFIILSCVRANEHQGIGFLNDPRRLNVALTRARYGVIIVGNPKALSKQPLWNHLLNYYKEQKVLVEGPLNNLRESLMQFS

UPF2L;UPF3B;UPF1 = UPF2L;UPF3B;UPF1 (human?;human?;human?, UniProt Q9HAU5;Q9BZI7;Q92900-2 121-1227;41-262;115-914, ||); test: as above; details: protein: recombinant;recombinant;recombinant; tags: C-terminal TEV site and His6;;; copies: 1;1;1; label: 5' HEX; hairpin with bulges
UPF2L;UPF3B;UPF1, sequence (Q9HAU5 121-1227, one chain of several): as the sequence (Q9HAU5 121-1227, one chain of several) above

UPF2 MIF4G-D1 = UPF2 MIF4G-D1 (UniProt Q9HAU5 120-486); test: EMSA; no defined complex band, no remodeling; FA: 25 mM HEPES pH 7.45, 150 mM NaCl, 5% glycerol, 10 nM probe, temperature not stated; EMSA: 250 nM probe in 25 mM HEPES pH 7.45, 100 mM NaCl, 5% glycerol (protein dilution buffer 300 nM [sic] NaCl, 2 mM bME or 1 mM TCEP), 1 h on ice, gel at 4 C; details: protein: recombinant; tags: C-terminal TEV site and His6; label: 5' HEX; hairpin with bulges
UPF2 MIF4G-D1, sequence (Q9HAU5 120-486): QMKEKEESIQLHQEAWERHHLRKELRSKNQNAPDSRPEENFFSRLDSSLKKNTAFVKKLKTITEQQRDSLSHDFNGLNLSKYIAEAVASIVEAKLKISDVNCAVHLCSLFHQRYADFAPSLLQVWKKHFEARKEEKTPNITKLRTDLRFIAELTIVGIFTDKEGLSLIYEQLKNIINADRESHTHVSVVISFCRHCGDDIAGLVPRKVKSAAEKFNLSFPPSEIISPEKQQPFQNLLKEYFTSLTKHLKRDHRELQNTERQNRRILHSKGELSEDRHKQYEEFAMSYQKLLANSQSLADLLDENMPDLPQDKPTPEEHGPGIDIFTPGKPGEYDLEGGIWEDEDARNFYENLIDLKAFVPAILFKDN

UPF2 MIF4G-D2 = UPF2 MIF4G-D2 (UniProt Q9HAU5 455-757); test: as above; details: protein: recombinant; tags: C-terminal TEV site and His6; label: 5' HEX; hairpin with bulges
UPF2 MIF4G-D2, sequence (Q9HAU5 455-757): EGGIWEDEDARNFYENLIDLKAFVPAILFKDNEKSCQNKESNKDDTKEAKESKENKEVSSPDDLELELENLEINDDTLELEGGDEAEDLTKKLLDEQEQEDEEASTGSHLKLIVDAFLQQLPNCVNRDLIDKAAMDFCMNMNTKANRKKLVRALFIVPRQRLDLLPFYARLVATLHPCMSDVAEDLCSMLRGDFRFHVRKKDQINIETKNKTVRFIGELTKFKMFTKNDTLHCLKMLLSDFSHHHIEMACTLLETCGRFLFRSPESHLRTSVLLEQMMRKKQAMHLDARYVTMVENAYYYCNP

UPF2 MIF4G-D1-2 = UPF2 MIF4G-D1-2 (UniProt Q9HAU5 120-757); test: as above; details: protein: recombinant; tags: C-terminal TEV site and His6; label: 5' HEX; hairpin with bulges
UPF2 MIF4G-D1-2, sequence (Q9HAU5 120-757): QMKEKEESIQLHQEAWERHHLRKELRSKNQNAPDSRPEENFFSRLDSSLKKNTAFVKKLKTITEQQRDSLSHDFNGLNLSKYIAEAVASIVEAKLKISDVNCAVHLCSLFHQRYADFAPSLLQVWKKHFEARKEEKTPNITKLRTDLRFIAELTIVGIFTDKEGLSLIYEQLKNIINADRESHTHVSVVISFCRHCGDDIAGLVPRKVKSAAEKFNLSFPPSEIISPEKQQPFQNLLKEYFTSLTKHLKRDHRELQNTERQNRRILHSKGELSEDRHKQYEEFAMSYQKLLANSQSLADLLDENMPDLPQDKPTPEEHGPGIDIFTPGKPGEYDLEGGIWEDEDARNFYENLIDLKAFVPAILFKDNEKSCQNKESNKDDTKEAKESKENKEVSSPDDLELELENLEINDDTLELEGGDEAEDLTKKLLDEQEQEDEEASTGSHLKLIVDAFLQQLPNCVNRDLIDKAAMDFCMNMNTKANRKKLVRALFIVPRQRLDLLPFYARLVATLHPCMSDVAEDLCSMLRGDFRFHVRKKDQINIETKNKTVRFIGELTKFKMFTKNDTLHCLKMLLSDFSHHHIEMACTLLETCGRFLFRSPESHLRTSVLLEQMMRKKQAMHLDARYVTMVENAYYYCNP

UPF2L [1] = target: T3, UPF2L (UniProt Q9HAU5 121-1227); test: fluorescence anisotropy; FA: 25 mM HEPES pH 7.45, 150 mM NaCl, 5% glycerol, 10 nM probe, temperature not stated; EMSA: 250 nM probe in 25 mM HEPES pH 7.45, 100 mM NaCl, 5% glycerol (protein dilution buffer 300 nM [sic] NaCl, 2 mM bME or 1 mM TCEP), 1 h on ice, gel at 4 C; details: protein: recombinant; tags: C-terminal TEV site and His6; label: 5' HEX; hairpin with bulges
T3 sequence (Q9HAU5 121-1227): as the sequence (Q9HAU5 121-1227, one chain of several) above

UPF2 MIF4G-D3 = UPF2 MIF4G-D3 (UniProt Q9HAU5 761-1054); test: EMSA; weak unquenched complex band; FA: 25 mM HEPES pH 7.45, 150 mM NaCl, 5% glycerol, 10 nM probe, temperature not stated; EMSA: 250 nM probe in 25 mM HEPES pH 7.45, 100 mM NaCl, 5% glycerol (protein dilution buffer 300 nM [sic] NaCl, 2 mM bME or 1 mM TCEP), 1 h on ice, gel at 4 C; details: protein: recombinant; tags: C-terminal TEV site and His6; label: 5' HEX, 3' BHQ-1; hairpin with bulges
UPF2 MIF4G-D3, sequence (Q9HAU5 761-1054): as the sequence (Q9HAU5 761-1054, one chain of several) above

UPF2L [2] = target: T3, UPF2L; test: fluorescence spectroscopy (unquenching); FA: 25 mM HEPES pH 7.45, 150 mM NaCl, 5% glycerol, 10 nM probe, temperature not stated; EMSA: 250 nM probe in 25 mM HEPES pH 7.45, 100 mM NaCl, 5% glycerol (protein dilution buffer 300 nM [sic] NaCl, 2 mM bME or 1 mM TCEP), 1 h on ice, gel at 4 C; details: protein: recombinant; tags: C-terminal TEV site and His6; label: 5' HEX, 3' BHQ-1; hairpin with bulges

Binder | binding result (UPF2L;UPF3B) | binding result (UPF3B) | binding result (UPF2 MIF4G-D3;UPF3B) | binding result (UPF1) | binding result (UPF2L;UPF3B;UPF1) | binding result (UPF2 MIF4G-D1) | binding result (UPF2 MIF4G-D2) | binding result (UPF2 MIF4G-D1-2) | Kd (UPF2L [1]) | binding result (UPF2 MIF4G-D3) | binding result (UPF2L [2])
B1 | binds | binds | binds | binds | binds | no binding | no binding | no binding | 223 nM |  | 
B2 |  |  |  |  |  |  |  |  |  | binds | binds

— article PMC12170185, “Dynamic RNA binding and unfolding by nonsense-mediated mRNA decay factor UPF2”
